The results in this text go back to publication PMC3711430.

Experiment [1] has as its target Xenopus FANCI (Xenopus laevis (endogenous in egg extracts)). The experiment in a line: co-depletion by immunodepletion; DNA-free Xenopus S-phase egg extracts; FANCD2 or FANCI antibody coupled to Sepharose 4B beads, 60 min on ice, one to two rounds; depleted extracts analysed by immunoblot. On the technique in general: In western blotting, separated proteins are transferred to a membrane and probed.

Experiment [2] has as its target Xenopus FANCD2 (Xenopus laevis (endogenous in egg extracts)). The description is as above.

Regarding Xenopus FANCD2 (natural protein), the percent co-depleted in experiment [1] is 80%. The substance Xenopus FANCI (natural protein) displayed a percent co-depleted in experiment [2] of 80%.
